Results published in the MegaScale stability set (Tsuboyama et al. 2023).

B1: HEEH_KT_rd6_3546 (parent)
chain: SEEDKEREHWERLNRDFELRVLDTTFIAHHAEEVIKLLRWLEK

Variants of: B1
Assay: folding stability dG (cDNA display proteolysis); higher = more stable
Settings: PBS, room temperature

Row | Variant | folding stability dG
1 | SEEDKEREHWERLNRDFELRVLDTTFIAHHAEEVIKLLRWDEK [L41D] | -0.253 kcal/mol
2 | SEEDKEREHWERLNRDFELRVLDTTFIAHHAEEVIKLLRWPEK [L41P] | 0.119 kcal/mol
3 | SEEDKEREHWERLNRDFELRVLDTTFIAHHAEEVIKLLRWYEK [L41Y] | 0.761 kcal/mol
4 | SEEDKEREHWERLNRDFELRVLDTTFIAHHAEEVIKLLRWHEK [L41H] | 0.356 kcal/mol
5 | SEEDKEREHWERLNRDFELRVLDTTFIAHHAEEVIKLLRWEEK [L41E] | -0.48 kcal/mol
6 | SEEDKEREHWERLNRDFELRVLDTTFIAHHAEEVIKLLRWAEK [L41A] | 0.58 kcal/mol
7 | SEEDKEREHWERLNRDFELRVLDTTFIAHHAEEVIKLLRWNEK [L41N] | -0.295 kcal/mol
8 | SEEDKEREHWERLNRDFELRVLDTTFIAHHAEEVIKLLRWKEK [L41K] | 0.491 kcal/mol
9 | SEEDKEREHWERLNRDFELRVLDTTFIAHHAEEVIKLLRWSEK [L41S] | -0.005 kcal/mol
10 | SEEDKEREHWERLNRDFELRVLDTTFIAHHAEEVIKLLRWVEK [L41V] | 1.21 kcal/mol
11 | SEEDKEREHWERLNRDFELRVLDTTFIAHHAEEVIKLLRWIEK [L41I] | 1.14 kcal/mol
12 | SEEDKEREHWERLNRDFELRVLDTTFIAHHAEEVIKLLRWREK [L41R] | 0.586 kcal/mol
13 | SEEDKEREHWERLNRDFELRVLDTTFIAHHAEEVIKLLRWLYK [E42Y] | 2.57 kcal/mol
14 | SEEDKEREHWERLNRDFELRVLDTTFIAHHAEEVIKLLRWLLK [E42L] | 2.42 kcal/mol
15 | SEEDKEREHWERLNRDFELRVLDTTFIAHHAEEVIKLLRWLDK [E42D] | 1.07 kcal/mol
16 | SEEDKEREHWERLNRDFELRVLDTTFIAHHAEEVIKLLRWLNK [E42N] | 1.56 kcal/mol
17 | SEEDKEREHWERLNRDFELRVLDTTFIAHHAEEVIKLLRWLWK [E42W] | 2.59 kcal/mol
18 | SEEDKEREHWERLNRDFELRVLDTTFIAHHAEEVIKLLRWLQK [E42Q] | 1.67 kcal/mol
19 | SEEDKEREHWERLNRDFELRVLDTTFIAHHAEEVIKLLRWLTK [E42T] | 2.1 kcal/mol
20 | SEEDKEREHWERLNRDFELRVLDTTFIAHHAEEVIKLLRWLSK [E42S] | 1.84 kcal/mol

Row | Variant | folding stability dG
21 | SEEDKEREHWERLNRDFELRVLDTTFIAHHAEEVIKLLRWLVK [E42V] | 2.26 kcal/mol
22 | SEEDKEREHWERLNRDFELRVLDTTFIAHHAEEVIKLLRWLAK [E42A] | 1.82 kcal/mol
23 | SEEDKEREHWERLNRDFELRVLDTTFIAHHAEEVIKLLRWLKK [E42K] | 1.69 kcal/mol
24 | SEEDKEREHWERLNRDFELRVLDTTFIAHHAEEVIKLLRWLGK [E42G] | 1.7 kcal/mol
25 | SEEDKEREHWERLNRDFELRVLDTTFIAHHAEEVIKLLRWLFK [E42F] | 2.75 kcal/mol
26 | SEEDKEREHWERLNRDFELRVLDTTFIAHHAEEVIKLLRWLIK [E42I] | 2.41 kcal/mol
27 | SEEDKEREHWERLNRDFELRVLDTTFIAHHAEEVIKLLRWLMK [E42M] | 2.4 kcal/mol
28 | SEEDKEREHWERLNRDFELRVLDTTFIAHHAEEVIKLLRWLRK [E42R] | 1.85 kcal/mol
29 | SEEDKEREHWERLNRDFELRVLDTTFIAHHAEEVIKLLRWLHK [E42H] | 1.63 kcal/mol
30 | SEEDKEREHWERLNRDFELRVLDTTFIAHHAEEVIKLLRWLPK [E42P] | 0.291 kcal/mol
31 | SEEDKEREHWERLNRDFELRVLDTTFIAHHAEEVIKLLRHLEK [W40H] | 0.768 kcal/mol
32 | SEEDKEREHWERLNRDFELRVLDTTFIAHHAEEVIKLLRPLEK [W40P] | -0.109 kcal/mol
33 | SEEDKEREHWERLNRDFELRVLDTTFIAHHAEEVIKLLRNLEK [W40N] | 0.617 kcal/mol
34 | SEEDKEREHWERLNRDFELRVLDTTFIAHHAEEVIKLLRLLEK [W40L] | 1.01 kcal/mol
35 | SEEDKEREHWERLNRDFELRVLDTTFIAHHAEEVIKLLRGLEK [W40G] | 0.388 kcal/mol
36 | SEEDKEREHWERLNRDFELRVLDTTFIAHHAEEVIKLLRTLEK [W40T] | 0.373 kcal/mol
37 | SEEDKEREHWERLNRDFELRVLDTTFIAHHAEEVIKLLRQLEK [W40Q] | 0.781 kcal/mol
38 | SEEDKEREHWERLNRDFELRVLDTTFIAHHAEEVIKLLRKLEK [W40K] | 0.6 kcal/mol
39 | SEEDKEREHWERLNRDFELRVLDTTFIAHHAEEVIKLLRALEK [W40A] | 0.156 kcal/mol
40 | SEEDKEREHWERLNRDFELRVLDTTFIAHHAEEVIKLLRSLEK [W40S] | 0.639 kcal/mol

Row | Variant | folding stability dG
41 | SEEDKEREHWERLNRDFELRVLDTTFIAHHAEEVIKLLRILEK [W40I] | 1.31 kcal/mol
42 | SEEDKEREHWERLNRDFELRVLDTTFIAHHAEEVIKLLRFLEK [W40F] | 1.1 kcal/mol
43 | SEEDKEREHWERLNRDFELRVLDTTFIAHHAEEVIKLLRELEK [W40E] | 0.585 kcal/mol
44 | SEEDKEREHWERLNRDFELRVLDTTFIAHHAEEVIKLLRDLEK [W40D] | 0.502 kcal/mol
45 | SEEDKEREHWERLNRDFELRVLDTTFIAHHAEEVIKLLRRLEK [W40R] | 0.934 kcal/mol
46 | SEEDKEREHWERLNRDFELRVLDTTFIAHHAEEVIKLLRYLEK [W40Y] | 1.13 kcal/mol
47 | SEEDKEREHWERLNRDFELRVLDTTFIAHHAEEVIKLLRCLEK [W40C] | 1.55 kcal/mol
48 | SEEDKEREHWERLNRDFELRVLDTTFIAHHAEEVIKLLRMLEK [W40M] | 1.11 kcal/mol
49 | SEEDKEREHWERLNRDFELRVLDTTFIAHHAEEVIKLLRVLEK [W40V] | 0.885 kcal/mol
50 | SEEDKEREHWERLNRDFELRVLDTTFIAHHAEEVIKLYRWLEK [L38Y] | 0.971 kcal/mol
51 | SEEDKEREHWERLNRDFELRVLDTTFIAHHAEEVIKLMRWLEK [L38M] | 0.931 kcal/mol
52 | SEEDKEREHWERLNRDFELRVLDTTFIAHHAEEVIKLWRWLEK [L38W] | 1.61 kcal/mol
53 | SEEDKEREHWERLNRDFELRVLDTTFIAHHAEEVIKLQRWLEK [L38Q] | 0.257 kcal/mol
54 | SEEDKEREHWERLNRDFELRVLDTTFIAHHAEEVIKLSRWLEK [L38S] | 0.079 kcal/mol
55 | SEEDKEREHWERLNRDFELRVLDTTFIAHHAEEVIKLTRWLEK [L38T] | 0.188 kcal/mol
56 | SEEDKEREHWERLNRDFELRVLDTTFIAHHAEEVIKLRRWLEK [L38R] | 0.8 kcal/mol
57 | SEEDKEREHWERLNRDFELRVLDTTFIAHHAEEVIKLNRWLEK [L38N] | 0.045 kcal/mol
58 | SEEDKEREHWERLNRDFELRVLDTTFIAHHAEEVIKLPRWLEK [L38P] | -0.432 kcal/mol
59 | SEEDKEREHWERLNRDFELRVLDTTFIAHHAEEVIKLVRWLEK [L38V] | 0.9 kcal/mol
